Results taken from patent US20170165373A1 (Amgen, published 2017).
Like-named read-outs stand apart in the source and are kept apart here.

How the values were obtained:
[1] = target: T1, recombinant soluble human BCMA (Biacore analyte of Example 2) (human, UniProt Q02223 1-54); assay: Biacore 3000 SPR, antibody captured on anti-human IgG, rhu BCMA as analyte, 25 C
T1 construct: also called rhu BCMA; rsol.hu BCMA
T1 sequence: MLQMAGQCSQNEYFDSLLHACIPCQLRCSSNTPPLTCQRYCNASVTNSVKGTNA

[2] = target: T2, rhuBCMA fusion protein (6xHis::Sumo::huBCMA(aa 5-51)::GGS::G3::Avi) (human); assay: size exclusion chromatography (S200 column, PBS, UV trace), 500 ug antibody incubated with 500 ug sumoBCMA
T2 construct: Monomeric tagged fusion; the entry holds the tags, Sumo and the BCMA part; also called Sumo-BCMA; SumoBCMA
T2 chain: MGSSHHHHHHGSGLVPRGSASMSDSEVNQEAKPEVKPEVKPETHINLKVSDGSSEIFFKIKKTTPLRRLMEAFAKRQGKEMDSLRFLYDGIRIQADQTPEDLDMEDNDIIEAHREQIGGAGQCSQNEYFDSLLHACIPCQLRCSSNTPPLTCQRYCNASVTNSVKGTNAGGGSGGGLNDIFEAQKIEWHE

[3] = target: T3, human BCMA (huBCMA), full length, on cells (human, UniProt Q02223 1-184); assay: cell-based or functional assay
T3 chain: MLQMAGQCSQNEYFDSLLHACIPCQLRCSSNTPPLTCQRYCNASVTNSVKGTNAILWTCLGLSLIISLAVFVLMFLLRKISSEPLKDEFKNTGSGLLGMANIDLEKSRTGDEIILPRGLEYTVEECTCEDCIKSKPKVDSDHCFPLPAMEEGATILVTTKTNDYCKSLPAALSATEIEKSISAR

[4] = target: T4, clipped form of the rhuBCMA fusion protein, SEQ ID NO:354 (human); assay: LC/MS (ESI-TOF, reduced sample) of the SEC-isolated 2A1 + SumoBCMA sample
T4 construct: also called Peak A
T4 chain: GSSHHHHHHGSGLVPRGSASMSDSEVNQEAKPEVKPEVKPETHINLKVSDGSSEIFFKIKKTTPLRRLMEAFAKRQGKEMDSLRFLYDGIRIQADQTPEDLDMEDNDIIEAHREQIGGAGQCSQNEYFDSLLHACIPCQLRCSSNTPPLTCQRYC

[5] = target: T5, clipped form of the rhuBCMA fusion protein, SEQ ID NO:357 (human); assay: as above
T5 chain: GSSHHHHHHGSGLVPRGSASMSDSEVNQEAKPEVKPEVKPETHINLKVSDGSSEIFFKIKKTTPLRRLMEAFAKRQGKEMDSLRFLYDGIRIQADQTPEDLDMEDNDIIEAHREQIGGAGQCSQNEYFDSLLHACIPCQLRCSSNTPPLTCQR

[6] = target: T6, clipped form of the rhuBCMA fusion protein, SEQ ID NO:355 (human); assay: as above
T6 chain: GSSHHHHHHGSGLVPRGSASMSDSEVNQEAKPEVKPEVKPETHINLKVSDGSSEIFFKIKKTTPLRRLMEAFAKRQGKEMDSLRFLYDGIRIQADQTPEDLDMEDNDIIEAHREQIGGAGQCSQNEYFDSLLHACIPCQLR

[7] = target: T7, clipped form of the rhuBCMA fusion protein, SEQ ID NO:356 (human); assay: as above
T7 chain: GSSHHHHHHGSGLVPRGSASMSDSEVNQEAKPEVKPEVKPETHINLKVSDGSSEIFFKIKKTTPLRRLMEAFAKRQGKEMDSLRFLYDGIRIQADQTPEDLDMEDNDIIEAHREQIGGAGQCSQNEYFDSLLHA

[8] = target: T3, human BCMA (huBCMA), full length, on …; assay: FACS equilibrium titration on 293T cells transiently transfected with human BCMA (relative FACS affinity)
[9] = target: T8, cynomolgus BCMA, on transiently transfected 293T cells (cynomolgus (Macaca fascicularis), UniProt Q02223 1-184 (human entry)); assay: FACS equilibrium titration on 293T cells transiently transfected with cynomolgus BCMA (relative FACS affinity)
T8 construct: also called cyno BCMA
T8 sequence (Q02223 other isoform, or with tags, fused parts or gaps): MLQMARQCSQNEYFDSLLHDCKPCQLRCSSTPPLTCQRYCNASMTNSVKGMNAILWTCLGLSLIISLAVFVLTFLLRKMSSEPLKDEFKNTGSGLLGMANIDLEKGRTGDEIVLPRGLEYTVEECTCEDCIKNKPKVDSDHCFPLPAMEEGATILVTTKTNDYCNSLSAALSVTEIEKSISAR

[10] = target: T3, human BCMA (huBCMA), full length, on …; assay: FACS, H929 cells
[11] = target: T3, human BCMA (huBCMA), full length, on …; assay: FACS, H929 cells
[12] = target: T3, human BCMA (huBCMA), full length, on …; assay: FACS, H929 cells
[13] = target: T9, BAFF-R, full length, on transiently transfected cells (human, UniProt Q96RJ3 1-184); assay: FACS on cells transiently transfected with the full-length receptor; positive if MFI is two times the negative control
T9 construct: whole, on cells; also called huBAFF-R
T9 sequence (looked up): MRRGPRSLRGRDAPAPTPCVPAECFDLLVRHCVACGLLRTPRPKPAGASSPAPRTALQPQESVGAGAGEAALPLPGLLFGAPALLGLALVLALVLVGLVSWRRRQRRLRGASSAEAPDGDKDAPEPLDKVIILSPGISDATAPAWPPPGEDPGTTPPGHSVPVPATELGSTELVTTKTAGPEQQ

[14] = target: T10, TACI, full length, on transiently transfected cells (human, UniProt O14836 1-293); assay: as above
T10 construct: whole, on cells; also called huTACI
T10 sequence (looked up): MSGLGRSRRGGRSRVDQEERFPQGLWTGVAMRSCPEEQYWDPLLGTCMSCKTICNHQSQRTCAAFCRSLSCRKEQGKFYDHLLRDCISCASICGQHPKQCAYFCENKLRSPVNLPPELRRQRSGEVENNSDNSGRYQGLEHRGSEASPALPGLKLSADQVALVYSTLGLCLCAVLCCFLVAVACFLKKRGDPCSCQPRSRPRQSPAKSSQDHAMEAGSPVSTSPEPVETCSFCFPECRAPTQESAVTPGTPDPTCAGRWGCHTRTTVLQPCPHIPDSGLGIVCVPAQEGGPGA

[15] = target: T1, recombinant soluble human BCMA (Biacore …); assay: Biacore, recombinant soluble human BCMA; measured on parental 2A1; patent says 2A1CV5 binds identically
[16] = target: T11, rrat BCMA fusion protein (GS::6xHis::Sumo::ratBCMA(aa 2-49)::GGS::G3::Avi) (rat); assay: Biacore T200 SPR, antibody captured on anti-human IgG, rBCMA fusion as analyte, 25 C
T11 chain: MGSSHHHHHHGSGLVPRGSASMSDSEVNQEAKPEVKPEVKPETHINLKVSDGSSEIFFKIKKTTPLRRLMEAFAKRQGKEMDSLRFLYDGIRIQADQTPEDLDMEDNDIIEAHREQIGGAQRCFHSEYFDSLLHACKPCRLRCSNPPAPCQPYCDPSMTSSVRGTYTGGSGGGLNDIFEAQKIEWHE

[17] = target: T3, human BCMA (huBCMA), full length, on …; assay: FACS on H929 cells, native BCMA, relative binding, indirect
[18] = target: T2, rhuBCMA fusion protein …; assay: Biacore T200 SPR, antibody captured on anti-human IgG, rBCMA fusion as analyte, 25 C, 1:1 model
[19] = target: T3, human BCMA (huBCMA), full length, on …; assay: FACS, H929 cells
[20] = target: T3, human BCMA (huBCMA), full length, on …; assay: FACS on H929 myeloma cells
[21] = target: T1, recombinant soluble human BCMA (Biacore …); assay: Biacore 3000 SPR, antibody captured on anti-human IgG, rhu BCMA as analyte, steady state fit to a 1:1 isotherm

B1: 2A1 (parental fully human anti-huBCMA monoclonal antibody) (antibody, human IgG1, lambda, V domains shown)
VH: EVQLVESGGGLVKPGRSLRLSCTASGFTFGDYALSWFRQAPGKGLEWVGVSRSKAYGGTTDYAASVKGRFTISRDDSKSFAYLQMNSLKTEDTAVYYCCSSGYSSGWTPFDYWGQGTLVTVSS
VL: not shown
notes: also called Ab-5; Ab-18
Kd [1]: 0.027 nM | binding result [2]: binds | ADCC EC50, calcein-AM labelled H929 target cells [3]: 0.011 µg/mL | binding result [4]: binds | binding result [5]: binds | binding result [6]: binds | binding result [7]: binds | Kd [8]: 1.1 nM | Kd [9]: 0.905 nM | EC50 (read off the curve) [10]: ~0.3 µg/mL | EC50 (read off the curve) [11]: ~0.2 µg/mL | EC50 (read off the curve) [12]: ~0.1 µg/mL | binding result [13]: no binding | binding result [14]: no binding

B2: Ab-1 (2A1CV5) (antibody, human IgG1, lambda, V domains shown)
VH: EVQLVESGGGLVKPGGSLRLSCAASGFTFGDYALSWFRQAPGKGLEWVGVSRSKAYGGTTDYAASVKGRFTISRDDSKSTAYLQMNSLKTEDTAVYYCASSGYSSGWTPFDYWGQGTLVTVSS
VL: not shown
Kd [15]: 0.027 nM | Kd [16]: > 10 nM | EC50 [17]: 1.2 nM | Kd [18]: 0.155 nM

B3: 2A1CV4 (antibody, human IgG1, lambda, V domains shown)
VH: EVQLVESGGGLVKPGGSLRLSCAASGFTFGDYALSWFRQAPGKGLEWVGVSRSKAYGGTTDYAASVKGRFTISRDDSKSFAYLQMNSLKTEDTAVYYCASSGYSSGWTPFDYWGQGTLVTVSS
VL: not shown
notes: IgG1 covariance mutein of 2A1; also called Ab-38; P61055.3
binding result [19]: binds

B4: 2A1 Covariance 19 (2A1_K14Q + R17G + T24A + G32S + F44V + G56S + D84N + F88T + T98A + C107A + S108K; 2A1_E144K VL) (antibody, human IgG1, lambda, V domains shown)
VH: EVQLVESGGGLVQPGGSLRLSCAASGFTFSDYALSWVRQAPGKGLEWVSVSRSKAYGGTTDYAASVKGRFTISRDNSKSTAYLQMNSLKAEDTAVYYCAKSGYSSGWTPFDYWGQGTLVTVSS
VL: not shown
notes: also called Ab-37
binding result [20]: binds

B5: 1E1 (fully human anti-huBCMA monoclonal antibody) (antibody, IgG1, V domains shown)
VH: QVQLVQSGAEVKKPGASVKVSCKASGYTFTGHYIHWVRQAPGQGLEWMGWIYPNSGGTNYAQKFQGRVTMTRDTSISTAYMELSRLRSDDSAVYYCAREGMVTGDYYYYRMDVWGQGTTVIVSS
VL: QPVLTQPPSASASLGASVTLTCSLSSGYSNYKVDWYQQRPGKGPRFVMRVGIGGIVGSKGDGIPDRFSVLGSGLNRYLTIKNIQEEDESDFHCGADHGSGNNFVYVFGTGTKVTVLG
notes: Recombinantly cloned as IgG1; also called Ab-4
Kd [1]: 0.113 nM | ADCC EC50, calcein-AM labelled H929 target cells [3]: 0.076 µg/mL | Kd [8]: 2.8 nM | Kd [9]: > 100 nM | binding result [13]: no binding | binding result [14]: no binding

B6: 11F12 (fully human anti-huBCMA monoclonal antibody) (antibody, V domains shown)
VH: QVQLVESGGGVVQPGRSLRLSCAASGFTFSSYGLHWVRQAPGKGLEWVALISYDGSNKYYADSVKGRFTISRDNSKNTLYLQMNSLRAEDTAVYYCWYSSSWTPLDYWGQGTLVTVSS
VL: DIQMTQSPSSLSASVGDRVTITCRASQGIRNDLGWYQQKPGKAPKRLIYAASSLQSGVPSRFSGSGSGTEFTLTISSLQPEDFATYYCLQYYSYPLTFGGGTKVEIKR
notes: also called Ab-6; 11F12_LC#1
Kd [21]: 36.1 nM
